Experimental data taken from patent publication US20220089642A1.

Target: SARS-CoV1

Fc-ACE2 full length construct (Fc fusion)
Kd: 1.84 nM | koff: 0.000435 s⁻¹ | kon: 237000 M⁻¹ s⁻¹
